Experimental data as given in publication PMC2935290.

Each binder was assayed against HLA-DPB1*0501 (human (endogenous in HO301)) (assay: radioligand binding).

Row | other | Binder
1 | 0.2 | EKKYFAAYQFEPLAA [… T8Y]
2 | 0.13 | EKKYFAAWQFEPLAA [… T8W]
3 | 3.4 | EKKYFAATVFEPLAA [… Q9V]

Continued, binder first:

Row | Binder | other
4 | EKKYFYATQFEPLAA [… A6Y] | 2.1
5 | EKKYFAATQFQPLAA [… E11Q] | 1
6 | EKKYFDATQFEPLAA [… A6D] | 0.13
7 | EKKYFKATQFEPLAA [… A6K] | 1.8
8 | EKKYFAATQFRPLAA [… E11R] | 1
9 | EKKYFAATQFVPLAA [… E11V] | 2
10 | EKKYFAATKFEPLAA [… Q9K] | 0.95
11 | EKKYFAATQFNPLAA [… E11N] | 0.36
12 | EKKYFAATAFEPLAA [… Q9A] | 1
13 | EKKYFAATQFWPLAA [… E11W] | 0.13
14 | EKKYFAATQFIPLAA [… E11I] | 2.1
15 | EKKYFAATFFEPLAA [… Q9F] | 13

These binders were tested against HLA-DPB1*0201 (human (endogenous in JY)) (assay: radioligand binding).

Row | other | Binder
16 | 2 | EKKYFAATSFEPLAA [… Q9S]
17 | 1.8 | EKKQFAATQFEPLAA [… Y4Q]
18 | 0.2 | EKKAFAATQFEPLAA [… Y4A]

The remaining lines, values behind:

Row | Binder | other
19 | EKKYFIATQFEPLAA [… A6I] | 0.89
20 | EKKYFDATQFEPLAA [… A6D] | 0.36
21 | EKKYFCATQFEPLAA [… A6C] | 0.38
22 | EKKYFTATQFEPLAA [… A6T] | 1
23 | EKKYFEATQFEPLAA [… A6E] | 0.41
24 | EKKYFAATQFIPLAA [… E11I] | 1.8
25 | EKKYFAATQFLPLAA [… E11L] | 2

What follows are binders tested against HLA-DPB1*0101 (human (endogenous in VAVY)) (assay: radioligand binding).

Row | other | Binder
26 | 3.4 | EKKYFAANQFEPLAA [… T8N]
27 | 1.8 | EKKYFAATRFEPLAA [… Q9R]
28 | 1 | EKKYFAATPFEPLAA [… Q9P]
29 | 0.2 | EKKYFAADQFEPLAA [… T8D]
30 | 1 | EKKQFAATQFEPLAA [… Y4Q]
31 | 0.066 | EKKAFAATQFEPLAA [… Y4A]
32 | 2 | EKKDFAATQFEPLAA [… Y4D]

The remaining lines, values behind:

Row | Binder | other
33 | EKKYFYATQFEPLAA [… A6Y] | 6
34 | EKKYFFATQFEPLAA [… A6F] | 2.1
35 | EKKYFPATQFEPLAA [… A6P] | 0.18
36 | EKKYFAATCFEPLAA [… Q9C] | 1.8
37 | EKKYFAATHFEPLAA [… Q9H] | 1
38 | EKKYFTATQFEPLAA [… A6T] | 2.1
